Holding throughout (assay type): biochemical, Oryza sativa
Substrate in series [1]: CCCCCCCCCCC1=C(C)C(=O)C(OC)=C(OC)C1=O
Put plainly: steady-state DHODH activity, Michaelis-Menten fit. To be noted: co-substrate L-dihydroorotate, 30°C. An excerpt: (§1) steady-state DHODH activity, Michaelis-Menten fit on OsDHODH

Substrate in series [2]: O=C1C[C@@H](C(=O)O)NC(=O)N1
Put plainly: steady-state DHODH activity, Michaelis-Menten fit. To be noted: co-substrate decylubiquinone, 30°C.
Excerpt: as §1

Substrate in series [3]: O=C1CCNC(=O)N1
Put plainly: purified protein. To be noted: 0.1 M potassium buffer, pH 8, 1 mg/mL BSA, 37°C.

Substrate in series [4]: NC(=O)NCCC(=O)O
Put plainly: purified protein. As to conditions: 25°C.

Substrate in series [5]: CC(CNC(N)=O)C(=O)O
Put plainly: purified protein. To be noted: 25°C.

B1: OsDHODH (Oryza sativa Japonica Group) (protein)
chain: DEAKFCGWLFKSTQLVNPLFALLDAEFAHRLAVTAASHGFVPREKRPDPSVLGLEIWGRKFTNPIGLAAGFDKNAEAVEGLLGMGFGFVEVGSVTPLPQEGNPKPRIFRLREHGAVINRCGFNSEGIVVVAKRLGAQHGKRKMEETSSSTSPTTSDVKQGGKAGPGILGVNLGKNKISEDATADYVQGVHTLSQYADYLVINVSSPNTPGLRKLQGRKQLKDLVKKVQAARDEMQWAEDGPPPLLVKIAPDLSKQDLEDIAAVALALRLDGLIISNTTISRPSPADTHPLAQEAGGLSGKPLFDLSTNVLREMYILTRGKIPLIGCGGVSSGEDAYKKIRSGATLVQLYTAFAYGGPALIPRIKAELAECLERDGFKSVQEAVGADFK
notes: N-terminally truncated, starts at residue 82 (DEAK); N-terminal His-tag, pET15b, E. coli; full length 469 residues
As for B1, the Km amounted to 4.56 ± 0.67 µM in series [1] and 29.7 ± 3.5 µM in series [2].

B2: OsDHP-T1 (Oryza sativa Japonica Group) (protein)
chain: EFCAAVGGGSGGCGVGGGGGGDGRRILIRGGTVVNAHRVEEADVYVEDGVIVAVRPNIPVGDDHVKVIDATGKYVMPGGIDPHTHLEMEFMGTVTIDDFFSGHAAALAGGTTMHIDFVIPVNGNLTAGLESYKQKAEKSAMDYGFHMAITKWNDDVSREMETMVKEHGINSFKFFMAYKGSLMVTDDLLLQGLQKCKSLGALAMVHAENGDAVAEGQQRMIDLGITGPEGHALSRPPVLEGEATARAIRLAKFVNTPLYVVHVMSIDAMDEIAKAKREGQRVIGEPVVSGLVLDDSWLWDPDFMIASKYVMSPPIREAGHNKALQVALSSGILQLVGTDHCTFNSTQKAFGSDDFRKIPNGVNGIEERMHIIWDSMVETGRISVSDYVRVTSTECAKIFNIYPRKGAILEGSDADIIILNPERSFVMGAHTHHSRSNTNVYEGRKGKGMVEVTISRGRVVWEDGILNVVPGSGRYVRTPPYSYLFDGIEKSDAAYRASLRAPVKRGKAAA
notes: N-terminal His-tag, pET19b, E. coli; full length 539 residues, 57,989 Da
Regarding B2, in the series “purified protein [3]”, the Km was determined as 300 ± 40 µM, the turnover number (kcat) came out at 1.07 ± 0.04 s⁻¹ and the kcat/Km came to 3550 M⁻¹ s⁻¹.

B3: Osß-UP (Oryza sativa Japonica Group) (protein)
chain: MDSSNGERPPQGEDAPAAAAGSIGGYESLHRLLQSNLSPELFKEASRLLLGLNCGRALEAISLPEATSALAKAHNFDVQAFRFDADKEYLRQPRVIRVGLIQNSIAIPTTSHFADQKKAIMEKVKPMIDAAGDAGVNILCLQEAWTMPFAFCTREKRWCEFAEPVDGESTQFLQQLAKKYNMVIVSPILERDVNHGEIVWNTAVVIGNHGNIIGIHRKNHIPRVGDFNESTYYMEGNTGHPVFETAYGKIGVNICYGRHHPLNWLAFGLNGAEIVFNPSATVGELSEPMWPIEARNAAIANSYFVGSINRVGTEVFPNPFTSGDGKPQHADFGHFYGSSHFSAPDASCTPSLSRYRDGLMISDMDLNLCRQIKDKWGFRMTARYDTYASLLSEYLKPDFKPQVIVDPLINKSA
notes: full length, 413 residues (45,713 Da), N-terminal His-tag, pET15b, E. coli
Consider B3, for which, in “purified protein [4]”, the Km amounted to 140 ± 10 µM, the turnover number (kcat) is 2.54 ± 0.07 s⁻¹ and the kcat/Km was 18100 M⁻¹ s⁻¹. Moreover, in “purified protein [5]”, the Michaelis-Menten constant (Km) came to 160 ± 20 µM, the catalytic constant (kcat) came out at 1.36 ± 0.07 s⁻¹ and the specificity constant (kcat/Km) stood at 8500 M⁻¹ s⁻¹.
